What was measured:
[1] = Optimum pH of the enzyme activity; assay type: biochemical; conditions: MacIlvaine buffer, 35° C., 30 min
Protocol: (§1) The activity of α-isomaltosyl-transferring enzyme was measured by the following assay: A substrate solution was prepared by dissolving panose in 100 mM acetate buffer (pH 6.0) to give a concentration of 2% (w/v). A reaction mixture was prepared by mixing 0.5 ml of the substrate solution and 0.5 ml of an enzyme solution, and incubated at 35° C. for 30 min. After stopping the reaction by boiling for 10 min, the amount of glucose formed in the reaction mixture was determined by the glucose oxidase-peroxidase method. One unit of α-isomaltosyl-transferring activity was defined as the amount of the enzyme that forms one μmole of glucose per minute under the above conditions.
A purified specimen of polypeptide having α-isomaltosyl-transferring activity, obtained by the method in Experiment 3-2, was acted on the substrate in MacIlvaine buffer of various pHs at 35° C. for 30 min according to the assay method of α-isomaltosyl-transferring enzyme disclosed in Experiment 1-1.

[2] = Thermal stability of the polypeptide; assay type: physicochemical; conditions: 20 mM acetate buffer (pH 6.0), 60 min
Protocol: (§2) A purified specimen of polypeptide having α-isomaltosyl-transferring activity, obtained by the method in Experiment 3-2, was incubated in 20 mM acetate buffer (pH6.0) at various temperatures for 60 min according to the assay method of α-isomaltosyl-transferring enzyme disclosed in Experiment 1-1.

[3] = Optimum temperature of the enzyme activity; assay type: biochemical; conditions: incubated for 30 min, pH 6.0
Protocol: as §1
as §2, with “acted on the substrate” for “incubated”, “30 min,” for “60 min”

B1: polypeptide having α-isomaltosyl-transferring enzyme activity from Bacillus globisporus N75: purified α-isomaltosyl-transferring enzyme from Bacillus globisporus N75 (FERM BP-7591), contains the … (protein, listed as Bacillus globisporus)
chain: IDGVYHAPYGIDDLYEIQATERSPRDPVAGETVYIKITTWPIEPGQTAWVTWTKNGVAQPAVGAAYKYNSGNNTYWEANLGSFAKGDVISYTVRGNKDGANEKTAGPFTFTVTDWEYVSSIGSVTNNTNRVLLNAVPNTGTLSPKINISFTADDVFRVQLSPTGSGTLSTGLSNFTVTDSASTAWISTSKLKLKVDKNPFKLSVYKPDGTTLIARQYDSTANRNLAWLTNGSTVINKIEDHFYSPASEEFFGFGERYNNFRKRGTDVDTYVYNQYKNQNDRTYMAIPFMLNSSGYGIFVNSTYYSKFRLATERSDMYSFTADTGGSANSTLDYYFIYGNDLKGVVSNYANITGKPAALPKWAFGLWMSANEWDRQSKVATAINNANTNNIPATAVVLEQWSDENTFYMFNDAQYTAKPGGSTHSYTDYIFPAAGRWPNPKQMADNVHSNGMKLVLWQVPIQKWTAAPHLQKDNDESYMIAQNYAVGNGSGGQYRIPSGQWFENSLLLDFTNPSAKNWWMSKRAYLFDGVGIDGFKTDGGEMVWGRWNTFANGKKGDEMRNQYPNDYVKAYNEYARSKKSDAVSFSRSGTQGAQANQIFWSGDQESTFGAFQQAVQAGLTAGLSGVPYWSWDLAGFTGAYPSAELYKRATAMSAFAPIMQFHSEANGSSGINEERSPWNAQARTGDNTIISHFAKYTNTRMNLLPYIYSEAKAASDTGVPMMRAMALEYPSDTQTYGLTQQYMFGGSLLVAPVLNQGETNKNIYLPQGDWIDFWFGAQRPGGRTISYYAGVDDLPVFVKSGSILPMNLNGQYQVGGTIGNSLTAYNNLTFRIYPLGTTTYSWNDDIGGSVKTITSTEQYGLNKETVTLPAINSAKTLQVFTTKPSSVTLGGTALTAHSTLSALIGASSGWYYDTVQKLAYVKLGASSSAQTVVLDGVNKVEYEAEFGTLTGVTTNTNHAGYMGTGFVDGFDAAGDAVTFDVSVKAAGTYALKVRYASAGGNASRAIYVNNAKVTDLALPATANWDTWGTATVNVALNAGYNSIKVSYDNTNTLGINLDNIAIVEH
For B1, the “optimum pH” value [1] was “about 6.0”, the thermal stability [2] was “up to 45 °C” and the optimum temperature [3] was “about 50 °C”.

— patent US7098013B2, “Polypeptide having α-isomaltosyl-transferase activity” (Kabushiki Kaisha Hayashibara Seibutsu Kagaku Kenkyujo, priority 2000, dated 2006)
